This note sets out measurements from US20260085127A1 (BRIGHTPATH BIOTHERAPEUTICS, published 2026).

The target of test [1] is T1, human TIM-3 (Accession No. JX049979.1) stably expressed on cells (human, UniProt Q8TDQ0 22-301).
T1 construct: whole, on cells; On Jurkat or 293T cells; also called Jurkat/TIM-3; 293T/TIM-3
Nature of the test: flow cytometry, 293T/TIM-3 cells, KD from MFI.

Test [2] concerns the target T2, recombinant human CD39 (in-house product, 38 to 478 aa of Accession No. NM_001776.6) (human, UniProt P49961 38-478).
T2 construct: also called rhCD39; human CD39-ECD; not shown: Myc and His tags at the C-terminus are named only for the PE-lab
T2 sequence (looked up): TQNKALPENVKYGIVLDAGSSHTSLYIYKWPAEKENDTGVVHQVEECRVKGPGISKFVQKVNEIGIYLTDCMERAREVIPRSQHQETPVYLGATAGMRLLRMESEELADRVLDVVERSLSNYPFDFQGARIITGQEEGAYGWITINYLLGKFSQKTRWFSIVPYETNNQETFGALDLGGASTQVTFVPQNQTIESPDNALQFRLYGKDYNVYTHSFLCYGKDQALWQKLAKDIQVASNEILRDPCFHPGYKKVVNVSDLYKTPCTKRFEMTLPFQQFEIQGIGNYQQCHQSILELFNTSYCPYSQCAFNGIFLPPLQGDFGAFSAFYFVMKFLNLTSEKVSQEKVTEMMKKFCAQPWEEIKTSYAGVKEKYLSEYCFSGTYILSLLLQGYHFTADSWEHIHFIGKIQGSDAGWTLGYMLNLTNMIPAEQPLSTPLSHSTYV
Nature of the test: SPR Biacore8K, antibody captured on anti-human IgG, antigen as analyte.

For test [3], the target named is T3, biotinylated human TIM-3-Fc antigen (in-house product, SEQ ID No: 118) (human, biotinylated). In words: flow cytometry, inhibition of biotinylated TIM-3-Fc binding to phosphatidylserine on apoptotic Jurkat cells.
The target in test [4] is T4, human CD39 (Accession No. NM_001776.6) expressed on cells (human, UniProt P49961 1-510).
T4 construct: whole, on cells; On Jurkat, 293T or SK-MEL28 cells; also called Jurkat/CD39; 293T/CD39
T4 sequence (looked up): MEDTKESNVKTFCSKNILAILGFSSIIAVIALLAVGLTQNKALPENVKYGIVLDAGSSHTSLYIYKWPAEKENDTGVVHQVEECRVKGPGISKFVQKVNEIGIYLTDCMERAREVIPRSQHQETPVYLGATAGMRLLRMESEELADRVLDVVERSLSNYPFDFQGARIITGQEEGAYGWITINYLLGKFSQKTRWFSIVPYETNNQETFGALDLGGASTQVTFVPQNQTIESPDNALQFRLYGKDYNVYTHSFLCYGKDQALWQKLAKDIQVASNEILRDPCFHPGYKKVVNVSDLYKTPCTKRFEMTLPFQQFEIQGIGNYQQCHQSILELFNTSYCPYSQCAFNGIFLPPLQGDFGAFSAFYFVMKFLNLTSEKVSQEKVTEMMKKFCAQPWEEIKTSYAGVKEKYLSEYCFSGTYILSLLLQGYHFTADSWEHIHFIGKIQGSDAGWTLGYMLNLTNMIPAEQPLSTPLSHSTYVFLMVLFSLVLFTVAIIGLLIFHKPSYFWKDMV
In words: flow cytometry, 293T/CD39 cells, KD from MFI. (A flow cytometer gives signals particle by particle.)

Test [5] deals with T3, biotinylated human TIM-3-Fc antigen …. In words: competition ELISA: human Galectin-9 coated, biotinylated human TIM-3-Fc pre-mixed with the antibody dilution series, Streptavidin-HRP, A450; blocked ligand: human Galectin-9. (In general: ELISA stands for enzyme-linked immunosorbent assay.)
For test [6] the target is unchanged. Nature of the test: flow cytometry, inhibition of biotinylated TIM-3-Fc binding to phosphatidylserine on apoptotic Jurkat cells. This is another data set of the same source.
The target in test [7] is T2, recombinant human CD39 (in-house …). Nature of the test: SPR Biacore8K, antibody captured on anti-human IgG, antigen as analyte. The source holds these as a separate data set. (In general: Surface plasmon resonance follows binding to a sensor surface in real time, without labels.)
Test [8] addresses T3, biotinylated human TIM-3-Fc antigen …. Nature of the test: competition ELISA: human Galectin-9 coated, biotinylated human TIM-3-Fc pre-mixed with the antibody dilution series, Streptavidin-HRP, A450; blocked ligand: human Galectin-9. The source holds these as a separate data set.
The target of test [9] is T4, human CD39 (Accession No. NM_001776.6) …. Nature of the test: flow cytometry on a mix of Jurkat, Jurkat/TIM-3, Jurkat/CD39 and Jurkat/TIM-3+CD39 cells in one well, antibody at 0.1 nM, BV421-anti-hIgG, MFI of BV421 per cell group.
In test [10] the target is T1, human TIM-3 (Accession No. JX049979.1) …. Nature of the test: flow cytometry, Jurkat/TIM-3 + CD39 cells, KD from MFI.
Test [11] has the same target. Nature of the test: flow cytometry, Jurkat/TIM-3 cells, KD from MFI.
The target is the same in test [12]. Nature of the test: flow cytometry on a mix of Jurkat, Jurkat/TIM-3, Jurkat/CD39 and Jurkat/TIM-3+CD39 cells in one well, antibody at 1 nM, BV421-anti-hIgG, MFI of BV421 per cell group.
Test [13] concerns the target T4, human CD39 (Accession No. NM_001776.6) …. In words: flow cytometry, 293T/CD39 cells, KD from MFI. The source holds these as a separate data set.
Test [14] shares this target. Nature of the test: flow cytometry, 293T/TIM-3 + CD39 cells, KD from MFI.
Test [15] shares this target. In words: flow cytometry on a mix of Jurkat, Jurkat/TIM-3, Jurkat/CD39 and Jurkat/TIM-3+CD39 cells in one well, antibody at 1 nM, BV421-anti-hIgG, MFI of BV421 per cell group.

Several values for one entry are separate records, joined by “and”; a condition that tells them apart may be missing. Equal values may be shown once. Read-outs that look alike come from different tables or passages of the source.

The term Kd denotes the equilibrium constant for the complex coming apart. In general, IC50 refers to the concentration needed to halve the response being measured. Low values mean greater potency in that assay, high ones weaker potency in that assay. For orientation: koff means the first-order rate constant of dissociation. Usually kon stands for the second-order rate constant of association.

B1: HuP4_IB_Hu003 (bispecific antibody)
chain 1: QVQLLESGPELVKPSATLSITCTVSGFSLTNYGVHWIRQAPGKGLEWLGVILRRGSTDYNAAFMSRFTISKDNSKNQVYFKLRSVTAEDTAVVAGDYFDYWGQGTMVTVSSGGGGSGGGGSGGGGSGGGGSDIQMTQSHSTLSLSVGDRVTITCKASQNVGTNVAWYQQKPGQPPKALIYSASYRYSGVPSRFSGSGSGTDFTLTISSVQAEDVAVYYCQQYNSYPLTFGPGTKLEIK
chain 2: QVQLQESGGGLVKPGGSLKLSCAASGFTFSSYYMSWVRQTPDKRLEWVATISNSGGSTYYPDSVKDRFTISRDNAKNTLYLQMSSLKSEDTAMYYCARDPYYTNYVPMDYWGQGTMVTVSSGGGGSGGGGSGGGGSGGGGSDIVMTQSPSFLSASVGDRVTITCKASQYVDTYVAWYQQRPGKAPKPLIYSASTRHTGVPSRFSGSGSGTEFTLTISSLQPEDFATYFCAQYSSSPLTFGGGTKLELK
Regarding B1, the Kd is 8.66 nM in [1], 0.334 nM in test [2] and 11.4 nM in test [4]. In test [3], this molecule returned an IC50 of 16.5 nM. The “IC50 (read off the curve)” value in [5] was approximately 3 nM.

B2: I67_Hu003_Fsc (bispecific antibody, not shown: a dimerising Fc or GST)
VH: DVQLQESGPSLVQPSQSLSINCTVSGFSLSSYGVHWVRQSPGKGLEWLGVIWRRGSTDYNAAFMSRLSITKDNSKSQVFFKMNRLQADDTATYYCAKGISTATSWFAYWGQGTLVTVSA
VL: DIVMTQSHKFMSTSVGDRVSVTCKASQNVGTNVAWYQQKPGQSPKALIYSASYRYSGVPDRFTGSGSGTDFTLTISNVQSEDLAEYFCQQYNSYPLTFGAGTKLELK
scFv: B1 chain 2
notes: Fab-scFv-Fc heterodimer: anti-CD39 Fab I67 (Knob)
For the molecule B2, the Kd in test [1] was found to be 4.78 nM. In test [6], this molecule came in with a half-maximal inhibitory concentration (IC50) of 25.2 nM.

B3: 6-3hIG_Hu003_Fsc (bispecific antibody, not shown: a dimerising Fc or GST)
VH: QVQLVQSGAELVKPGASVKLSCKASGFSIKDTYVHWVKQAPGKGLEWIGKIDPANVNTKFDPKFQGRVTITADTSTNTAYLQLSSLRSEDTAVYYCALYGYDDDAYYFDYWGQGTLVTVSS
VL: EIVLTQSPASLSVSPGERATISCRASESVDNYGISFMNWFQQKPGQAPKLLIYAASNQGSGVPARFSGSGSGTDFTLTISSLEPEDFAVYYCQQSKEVPYTFGQGTKLEIK
scFv: B1 chain 2
With B3, the results for the Kd in test [7] and in [4] were 0.21 nM and 17.6 nM, respectively. In addition, the IC50 in test [6] was found to be 15.5 nM. Further, the “IC50 (read off the curve)” value in [8] was approximately 2 nM.

B4: Hu072_11_sc (antibody)
scFv: QVQLQESGGGLVKPGGSLKLSCAASGFTFSSYYMSWVRQTPDKRLEWVATISNSGGSTYYPDSVKDRFTISRDNAKNTLYLQMSSLKSEDTAMYYCARDPYYTNYVPMDYWGQGTMVTVSSGGGGSGGGGSGGGGSGGGGSDIVMTQSPDSLAVSLGERVTLSCKASENVGTYVSWYQQKPRQPPKLLIYGASNRYTGVPDRFSGSGSGTDFTLTISSLQAEDVALYYCGQSYSYPLTFGQGTRLEIK
notes: scFv-Fc homodimer, anti-TIM-3; also called scFv-Fc homodimeric antibody of anti-TIM-3_ScFv antibody Hu072_11; not shown: GGGG linker and Fc-LALA (IgG1 Fc with L234A and L235A)
As to B4, in test [9], the binding result is on record as “no binding (tested: 0.1 nM)”. Further, the values for the Kd in test [10] and in [11] were 31.2 nM and 26.8 nM, respectively.

B5: 6-3hIG_LA (antibody, V domains shown)
VH: B3 VH
VL: B3 VL
notes: IgG1LALA homodimeric antibody; also called IgG1LALA homodimeric antibody of anti-CD39 antibody (humanized) 6-3hIG
For B5, in test [12], the binding result is listed as “no binding (tested: 1 nM)”. The Kd in [2] stood at 0.629 nM; in test [13], 7.04 nM; in test [14], 16.8 nM. Further, the koff in [2] turned out to be 0.000193 s⁻¹. Moreover, in test [2], the kon was found to be 307000 M⁻¹ s⁻¹.

B6: Hu003_13_F20_LA (antibody, V domains shown)
VH: QVQLQESGGGLVKPGGSLKLSCAASGFTFSSYYMSWVRQTPDKRLEWVATISNSGGSTYYPDSVKDRFTISRDNAKNTLYLQMSSLKSEDTAMYYCARDPYYTNYVPMDYWGQGTMVTVSS
VL: DIVMTQSPSFLSASVGDRVTITCKASQYVDTYVAWYQQRPGKAPKPLIYSASTRHTGVPSRFSGSGSGTEFTLTISSLQPEDFATYFCAQYSSSPLTFGGGTKLELK
notes: IgG1LALA homodimeric antibody (IgG1 with L234A and L235A); also called Hu003_LA; Hu003-LA
Regarding B6, the binding result in test [15] is “no binding (tested: 1 nM)”. Besides, the IC50 in test [6] was 8.93 nM and 7.11 nM and 8.51 nM and 12.3 nM.
